B1: PCDH15_(1EC) (EC11 to CR), purified in complex with LHFPL5 for cryo-EM (domain or fragment, mouse (Mus musculus), UniProt Q99PJ1 27-30, looked up)
chain: QYDDHPPVFQKKFYIGGVSEDARMFASVLRVKATDRDTGNYSAMAYRLIIPPIKEGKEGFVVETYTGLIKTAMLFHNMRRSYFKFQVIATDDYGKGLSGKADVLVSVVNQLDMQVIVSNVPPTLVEKKIEDLTEILDRYVQEQIPGAKVVVESIGARRHGDAYSLEDYSKCDLTVYAIDPQTNRAIDRNELFKFLDGKLLDINKDFQPYYGEGGRILEIRTPEAVTSIKKRGESLGYTEGALLALAFIIILCCIPAILVVLVSYRQFKVRQAECTKTARIQSAMPAAKPAAPVPAAPAPPPPPPPPPPGAHLYEELGESAMH
notes: signal peptide in the construct; source: HEK293 tsa201 (suspension), BacMam co-infection with LHFPL5, purified (Strep-Tactin, TALON, thrombin, SEC in digitonin); not shown: mVenus, C-terminal, cleaved; 8xHis, C-terminal, cleaved
B2: LHFPL5, purified in complex with PCDH15 for cryo-EM (Strep-mCerulean removed) (natural protein, mouse (Mus musculus), UniProt Q4KL25 2-219, looked up)
chain: VKLLPAQEAAKIYHTNYVRNSRAVGVMWGTLTICFSVLVMALFIQPYWIGDSVSTPQAGYFGLFSYCVGNVLSSELICKGGPLDFSSIPSRAFKTAMFFVALAMFLIIGSIICFSLFFVCNTATVYKICAWMQLAAATGLMIGCLVYPDGWDSSEVRRMCGEQTGKYTLGHCTIRWAFMLAILSIGDALILSFLAFVLGYRQDKLLPDDYKADGNEEV
notes: called full length LHFPL5 in the text; also called TMHS; not shown: Strep, N-terminal, cleaved; mCerulean, N-terminal, cleaved
B3: PCDH15_(4EC), purified in complex with LHFPL5 for cryo-EM (domain or fragment, mouse (Mus musculus), UniProt Q99PJ1 27-30, looked up)
chain: QYDDSPVFTNSTYTVVVEENLPAGTSFLQIEAKDVDLGANVSYRIRSPEVKHLFALHPFTGELSLLRSLDYEAFPDQEASITFLVEAFDIYGTMPPGIATVTVIVKDMNDYPPVFSKRIYKGMVAPDAVKGTPITTVYAEDADPPGMPASRVRYRVDDVQFPYPASIFDVEEDSGRVVTRVNLNEEPTTIFKLVVVAFDDGEPVMSSSATVRILVLHPGEIPRFTQEEYRPPPVSELAARGTVVGVISAAAINQSIVYSIVAGNEEDKFGINNVTGVIYVNSPLDYETRTSYVLRVQADSLEVVLANLRVPSKSNTAKVYIEIQDENDHPPVFQKKFYIGGVSEDARMFASVLRVKATDRDTGNYSAMAYRLIIPPIKEGKEGFVVETYTGLIKTAMLFHNMRRSYFKFQVIATDDYGKGLSGKADVLVSVVNQLDMQVIVSNVPPTLVEKKIEDLTEILDRYVQEQIPGAKVVVESIGARRHGDAYSLEDYSKCDLTVYAIDPQTNRAIDRNELFKFLDGKLLDINKDFQPYYGEGGRILEIRTPEAVTSIKKRGESLGYTEGALLALAFIIILCCIPAILVVLVSYRQFKVRQAECTKTARIQSAMPAAKPAAPVPAAPAPPPPPPPPPPGAHLYEELGESAMH
modifications: N-linked glycosylation (predicted sites; density at EC10 and EC11)
notes: signal peptide in the construct; the tag may have stayed on; not shown: mVenus, C-terminal, cleaved; 8xHis, C-terminal, cleaved
B4: PCDH15 EC11-ELAUC (domain or fragment, mouse (Mus musculus), UniProt Q99PJ1 27-30, looked up)
chain: QYDDHPPVFQKKFYIGGVSEDARMFASVLRVKATDRDTGNYSAMAYRLIIPPIKEGKEGFVVETYTGLIKTAMLFHNMRRSYFKFQVIATDDYGKGLSGKADVLVSVVNQLDMQVIVSNVPPTLVEKKIEDLTEILDRYVQEQIPGAKVVVESIGARRHGDAYSLEDYSKCDLTVYAIDPQTNRAIDRNELFKFLDGKLLDINKDFQPYYGEGGRILEIRTPEAVTSIKKRGESLGYTEG
modifications: treated with PNGase
notes: signal peptide in the construct; also called protocadherin 15; source: HEK293S GnTI- cells, BacMam, secreted, purified (TALON, PNGase treatment, SEC; no thrombin digestion); not shown: 8xHis, C-terminal, kept

Key:
[1] = biological target: B2; test: cryo-EM structure; PCDH15_(1EC)-LHFPL5 complex co-expressed and co-purified in digitonin; C2, ~4.5 Å; settings: both partners purified
[2] = biological target: the molecule itself; test: as above
[3] = biological target: B2; test: cryo-EM structure; PCDH15_(4EC)-LHFPL5 complex co-expressed and co-purified in digitonin with 1 mM CaCl2; Volta phase plate; straight conformation, C2, ~11.3 Å; domains fitted as rigid bodies; settings: both partners purified
[4] = biological target: the molecule itself; test: as above
[5] = biological target: the molecule itself; test: AUC; sedimentation velocity, global direct boundary modelling (Lamm equation, kinetic homo-dimerization model) of samples at 2.3, 7.0 and 11.8 µM; dimer to monomers
[6] = biological target: the molecule itself; test: AUC; sedimentation velocity, 20°C, 50,000 rpm, absorbance 280 nm, 20 mM Tris pH 8.0, 150 mM NaCl; loading concentrations 0.1-57.8 µM; sw isotherm fitted with a monomer-dimer model; dimer to monomers

Binder: B1
binding result [1]: binds
stoichiometry N [2]: 2

Binder: B2
stoichiometry N [2]: 2

Binder: B3
binding result [3]: binds
binding result [4]: binds

Binder: B4
Kd [5]: 6.64 µM
koff [5]: 0.00035 s⁻¹
Kd [6]: 5.7 µM
stoichiometry N [6]: 2

— publication PMC6092121, “Structure of mouse protocadherin 15 of the stereocilia tip link in complex with LHFPL5” (eLife, 2018)
